Experimental data: US20250179200A1 (UNIVERSITY OF CHICAGO, published 2025)

Key:
[1] = biological target: T1, Growth Hormone Receptor (GHR) immobilized on a high binding plate (UniProt P10912 19-264, limits assumed); test: competition ELISA: Fab titrated on plate-bound GHR preincubated with 200 nM GH (the legend of 6A names B2036), anti-human Fab-HRP
T1 sequence (looked up): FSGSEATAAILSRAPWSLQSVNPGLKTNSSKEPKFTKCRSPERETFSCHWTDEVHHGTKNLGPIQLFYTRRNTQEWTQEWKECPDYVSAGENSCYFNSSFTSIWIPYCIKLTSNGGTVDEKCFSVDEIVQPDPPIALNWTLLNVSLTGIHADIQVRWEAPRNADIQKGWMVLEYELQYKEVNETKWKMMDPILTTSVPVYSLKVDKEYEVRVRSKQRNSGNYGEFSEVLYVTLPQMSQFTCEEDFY
Protocol: 200 nM of GHR was immobilized on a 96-well high binding plate (Geiner Bio) and blocked with 5% BSA overnight. […] The Fab binding to GHR was detected using HRP-conjugated anti-human (Fab)2 antibody (Jackson ImmunoResearch, 1:5000 dilution in PBST), and the signal was developed with TMB substrate.

[2] = biological target: T2, Rat GHR_Fc with 10x His-tag (rat, UniProt P16310 19-265, limits assumed); test: SPR, GHR_Fc-10xHis on Ni-NTA chip, Fab in 2-fold dilutions from 50 nM, 1:1 fit
T2 construct: not shown: Fc domain and 10x His-tag
T2 sequence (looked up): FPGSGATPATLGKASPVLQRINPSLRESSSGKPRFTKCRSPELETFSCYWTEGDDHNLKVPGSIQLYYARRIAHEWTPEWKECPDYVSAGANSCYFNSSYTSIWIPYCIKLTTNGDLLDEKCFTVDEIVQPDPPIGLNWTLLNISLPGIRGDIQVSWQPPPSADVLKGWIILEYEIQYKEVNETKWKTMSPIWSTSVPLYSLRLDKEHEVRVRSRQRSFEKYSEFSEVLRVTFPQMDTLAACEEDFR
Protocol: (§1) Surface plasmon resonance (SPR) measurements were conducted in a MASS-1 (Bruker) instrument. The target GHR-Fc (50 nM) with a 10× His-tag was captured in a Ni-NTA sensor chip. […] Flow rate was 30 ul/min and temperature 20° C. Sensograms were corrected through double referencing and fitting was done with a 1:1 binding model using the Sierra Analyzer (Bruker). For epitope binning experiments, the first FAB was injected at saturating concentrations (200 nM), followed by injection a second FAB in equal molar mixture with the first FAB, and the response unit (RU) was recorded.
(§2) Target GHR_Fc (from different species) were immobilized via a 10× His-tag to a Ni-NTA sensor chip. […] Sensograms were corrected through double referencing and 1:1 binding model fit was done using Sierra Analyzer (Bruker). To reveal different epitopes on GHR, the epitope binning experiment was performed.

[3] = biological target: T3, Human GHR-Fc-10x His (extracellular region of human growth hormone receptor fused to human Fc) (human, UniProt P10912 50-256); test: as above
T3 construct: Captured by its 10x His-tag on a Ni-NTA sensor chip for SPR; not shown: human Fc domain of vector pAB1200 with its linker; 10x His-tag replacing the AviTag
T3 sequence (looked up): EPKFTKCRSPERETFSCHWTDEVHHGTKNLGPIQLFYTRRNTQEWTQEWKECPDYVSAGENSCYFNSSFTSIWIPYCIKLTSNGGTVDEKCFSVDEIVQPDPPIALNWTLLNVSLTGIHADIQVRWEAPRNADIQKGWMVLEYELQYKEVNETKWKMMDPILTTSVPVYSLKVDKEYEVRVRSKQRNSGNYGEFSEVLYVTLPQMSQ
Protocol: as §1, §2

[4] = biological target: T4, Pig GHR_Fc with 10x His-tag (pig, UniProt P19756 19-264, limits assumed); test: as above
T4 construct: not shown: Fc domain and 10x His-tag
T4 sequence (looked up): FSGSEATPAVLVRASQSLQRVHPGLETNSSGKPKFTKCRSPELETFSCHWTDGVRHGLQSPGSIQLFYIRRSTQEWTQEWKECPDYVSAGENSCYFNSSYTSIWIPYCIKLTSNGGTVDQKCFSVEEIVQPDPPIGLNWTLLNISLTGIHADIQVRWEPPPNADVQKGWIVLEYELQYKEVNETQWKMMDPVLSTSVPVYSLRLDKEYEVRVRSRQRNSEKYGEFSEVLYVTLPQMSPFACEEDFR
Protocol: as §1, §2

[5] = biological target: T5, Murine GHR_Fc with 10x His-tag (murine, UniProt P16882 25-273, limits assumed); test: as above
T5 construct: not shown: Fc domain and 10x His-tag
T5 sequence (looked up): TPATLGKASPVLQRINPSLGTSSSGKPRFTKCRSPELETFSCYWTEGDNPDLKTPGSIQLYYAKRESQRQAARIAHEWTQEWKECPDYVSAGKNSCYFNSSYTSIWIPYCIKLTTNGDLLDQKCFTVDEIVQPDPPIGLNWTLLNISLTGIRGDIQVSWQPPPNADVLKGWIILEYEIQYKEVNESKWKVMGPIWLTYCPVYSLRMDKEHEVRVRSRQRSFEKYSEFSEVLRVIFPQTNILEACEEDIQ
Protocol: as §1, §2

[6] = biological target: T6, Cyno GHR_Fc with 10x His-tag (Cyno, UniProt A0A2K5WH01 19-262); test: as above
T6 construct: not shown: Fc domain and 10x His-tag
T6 sequence: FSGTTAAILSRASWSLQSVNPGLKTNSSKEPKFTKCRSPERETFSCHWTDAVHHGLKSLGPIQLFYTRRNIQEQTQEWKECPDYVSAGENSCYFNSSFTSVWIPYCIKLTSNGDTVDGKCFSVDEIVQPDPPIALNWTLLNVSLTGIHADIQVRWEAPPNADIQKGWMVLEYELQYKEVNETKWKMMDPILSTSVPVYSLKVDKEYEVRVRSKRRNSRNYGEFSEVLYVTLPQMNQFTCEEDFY
Protocol: as §1, §2

[7] = biological target: T7, Rabbit GHR_Fc with 10x His-tag (rabbit, UniProt P19941 19-264, limits assumed); test: as above
T7 construct: not shown: Fc domain and 10x His-tag
T7 sequence (looked up): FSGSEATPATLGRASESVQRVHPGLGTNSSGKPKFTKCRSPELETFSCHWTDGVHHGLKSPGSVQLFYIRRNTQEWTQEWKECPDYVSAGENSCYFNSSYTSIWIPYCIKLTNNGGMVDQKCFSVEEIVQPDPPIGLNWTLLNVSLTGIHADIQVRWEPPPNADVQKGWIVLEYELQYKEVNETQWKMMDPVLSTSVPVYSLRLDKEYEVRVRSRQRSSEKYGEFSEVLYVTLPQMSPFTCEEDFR
Protocol: as §1, §2

B1: GHR3 Fab (Fab, V domains shown)
VH: EVQLVESGGGLVQPGGSLRLSCAASGFNVSYYSIHWVRQAPGKGLEWVAYISPSYGSTSYADSVKGRFTISADTSKNTAYLQMNSLRAEDTAVYYCARGYWGGGYWPYHAFDYWGQGTLVTVSS
VL: DIQMTQSPSSLSASVGDRVTITCRASQSVSSAVAWYQQKPGKAPKLLIYSASSLYSGVPSRFSGSRSGTDFTLTISSLQPEDFATYYCQQYYTSLLTFGQGTKVEIKR
Which EC50 [1] does the source give for B1 here?
Its EC50 is 26 nM.

B2: GHR_TS10 Fab (Fab, V domains shown)
VH: EVQLVESGGGLVQPGGSLRLSCAASGFNFSSSYIHWVRQAPGKGLEWVAYISPSSGYTSYADSVKGRFTISADTSKNTAYLQMNSLRAEDTAVYYCARQYYGGWYGFGMDYWGQGTLVTVSS
VL: DIQMTQSPSSLSASVGDRVTITCRASQSVSSAVAWYQQKPGKAPKLLIYSASSLYSGVPSRFSGSRSGTDFTLTISSLQPEDFATYYCQQWHSYLITFGQGTKVEIKR
B2 was tested. Which EC50 [1] did it give?
The EC50 was 3.5 nM.

B3: GHR_TS40 Fab (Fab, V domains shown)
VH: EVQLVESGGGLVQPGGSLRLSCAASGFNVSYYYIHWVRQAPGKGLEWVASIYPSSGYTSYADSVKGRFTISADTSKNTAYLQMNSLRAEDTAVYYCARYYWPASYWSGYSALDYWGQGTLVTVSS
VL: DIQMTQSPSSLSASVGDRVTITCRASQSVSSAVAWYQQKPGKAPKLLIYSASSLYSGVPSRFSGSRSGTDFTLTISSLQPEDFATYYCQQYPWGLITFGQGTKVEIKR
For B3, which EC50 [1] is on record?
The EC50 was 132 nM.

B4: GHR_TS23 Fab (Fab, V domains shown)
VH: EVQLVESGGGLVQPGGSLRLSCAASGFNFYYSSIHWVRQAPGKGLEWVASIYSYSGSTSYADSVKGRFTISADTSKNTAYLQMNSLRAEDTAVYYCARQYWYYGGYFYYGIDYWGQGTLVTVSS
VL: DIQMTQSPSSLSASVGDRVTITCRASQSVSSAVAWYQQKPGKAPKLLIYSASSLYSGVPSRFSGSRSGTDFTLTISSLQPEDFATYYCQQYWSTLITFGQGTKVEIKR
How did the EC50 [1] turn out when B4 was run?
Its EC50 is 3.5 nM.

B5: GHR_TS23 Fab (Fab, V domains shown)
VH: EVQLVESGGGLVQPGGSLRLSCAASGFNFYYSSIHWVRQAPGKGLEWVASIYSYSGSTSYADSVKGRFTISADTSKNTAYLQMNSLRAEDTAVYYCARQYWYYGGYFYYGIDYWGQGTLVTVSS
VL: DIQMTQSPSSLSASVGDRVTITCRASQSVSSAVAWYQQKPGKAPKLLIYSASSLYSGVPSRFSGSRSGTDFTLTISSLQPEDFATYYCQQYWSTLITFGQGTKVEIKR
notes: Fab from the cross-species phage display selection
With B5 as the binder, how does the Kd [2] read?
Its Kd is 8.2 nM.

What about the koff [2] of the same binder?
The koff was 0.0031 s⁻¹.

What about the kon [2] of the same binder?
The kon was 370000 M⁻¹ s⁻¹.

And the Kd [3]?
The Kd was 0.2 nM.

What about the koff [3] of the same binder?
Its koff is 0.00017 s⁻¹.

And the kon [3]?
The kon was 830000 M⁻¹ s⁻¹.

And the Kd [4]?
The Kd was 1.8 nM.

What about the koff [4] of the same binder?
Its koff is 0.0012 s⁻¹.

And the kon [4]?
Its kon is 670000 M⁻¹ s⁻¹.

What about the Kd [5] of the same binder?
The Kd was 7.8 nM.

What about the koff [5] of the same binder?
Its koff is 0.0051 s⁻¹.

And the kon [5]?
The kon was 660000 M⁻¹ s⁻¹.

And the Kd [6]?
Its Kd is 1.3 nM.

What about the koff [6] of the same binder?
The koff was 0.00038 s⁻¹.

And the kon [6]?
Its kon is 300000 M⁻¹ s⁻¹.

And the Kd [7]?
Its Kd is 2.5 nM.

What about the koff [7] of the same binder?
Its koff is 0.0014 s⁻¹.

And the kon [7]?
Its kon is 560000 M⁻¹ s⁻¹.
